Experimental findings from article PMC5376975, “Structural studies of RFCC tf18 reveal a novel chromatin recruitment role for Dcc1” are described below.

The target in the data set is T1, Dcc1 C-terminus WT (Saccharomyces cerevisiae, UniProt P25559 90-380).
T1 sequence: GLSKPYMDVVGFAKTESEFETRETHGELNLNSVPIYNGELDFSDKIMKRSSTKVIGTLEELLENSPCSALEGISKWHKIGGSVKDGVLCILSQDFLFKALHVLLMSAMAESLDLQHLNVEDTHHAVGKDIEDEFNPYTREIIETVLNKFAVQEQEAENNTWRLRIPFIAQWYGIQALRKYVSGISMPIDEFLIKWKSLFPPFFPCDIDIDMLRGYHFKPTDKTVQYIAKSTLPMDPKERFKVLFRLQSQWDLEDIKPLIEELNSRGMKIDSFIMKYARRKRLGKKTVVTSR
The data set can be described thus: EMSA; 1 uM DNA; EMSA, 6% native gel in 0.5x TBE, 4 C, DNA 1 uM unless stated; binding buffer, salt and pH not stated (protein storage 10 mM Tris pH 7.5, 150 mM NaCl, 0.5 mM TCEP for the complex). To be noted: protein: recombinant, tags: expressed by the complex protocol.

B1: 22-mer dsDNA (dsDNA)
DNA 1: TCTCCACAGGAAACGGAGGGGT
DNA 2: ACCCCTCCGTTTCCTGTGGAGA
As for B1, under “label: 5' 6-FAM on sense strand”, the binding result is recorded as “binds”. On to TTTTTTTTTTTTTTTTTTTTTTTTT (ssDNA) [25-mer oligo d(T)], for which the binding result (label: 5' 6-FAM) was “binds”.
